Assay [1] deals with T1, Est3-(Flag)3 (S. cerevisiae, UniProt Q03096 1-181).
T1 sequence (looked up): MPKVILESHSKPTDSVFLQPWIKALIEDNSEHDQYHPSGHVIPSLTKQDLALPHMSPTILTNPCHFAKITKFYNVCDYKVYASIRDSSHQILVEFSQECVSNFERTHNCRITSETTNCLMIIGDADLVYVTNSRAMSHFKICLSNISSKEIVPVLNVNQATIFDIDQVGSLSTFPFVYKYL
The assay can be described thus: co-IP.

The target in assay [2] is T1, Est3-(Flag)3. The assay can be described thus: co-IP. The source holds these as a separate data set.

B1: (myc)12-Est2 (natural protein, S. cerevisiae, UniProt Q06163 1-884, looked up)
chain: MKILFEFIQDKLDIDLQTNSTYKENLKCGHFNGLDEILTTCFALPNSRKIALPCLPGDLSHKAVIDHCIIYLLTGELYNNVLTFGYKIARNEDVNNSLFCHSANVNVTLLKGAAWKMFHSLVGTYAFVDLLINYTVIQFNGQFFTQIVGNRCNEPHLPPKWAQRSSSSSATAAQIKQLTEPVTNKQFLHKLNINSSSFFPYSKILPSSSSIKKLTDLREAIFPTNLVKIPQRLKVRINLTLQKLLKRHKRLNYVSILNSICPPLEGTVLDLSHLSRQSPKERVLKFIIVILQKLLPQEMFGSKKNKGKIIKNLNLLLSLPLNGYLPFDSLLKKLRLKDFRWLFISDIWFTKHNFENLNQLAICFISWLFRQLIPKIIQTFFYCTEISSTVTIVYFRHDTWNKLITPFIVEYFKTYLVENNVCRNHNSYTLSNFNHSKMRIIPKKSNNEFRIIAIPCRGADEEEFTIYKENHKNAIQPTQKILEYLRNKRPTSFTKIYSPTQIADRIKEFKQRLLKKFNNVLPELYFMKFDVKSCYDSIPRMECMRILKDALKNENGFFVRSQYFFNTNTGVLKLFNVVNASRVPKPYELYIDNVRTVHLSNQDVINVVEMEIFKTALWVEDKCYIREDGLFQGSSLSAPIVDLVYDDLLEFYSEFKASPSQDTLILKLADDFLIISTDQQQVINIKKLAMGGFQKYNAKANRDKILAVSSQSDDDTVIQFCAMHIFVKELEVWKHSSTMNNFHIRSKSSKGIFRSLIALFNTRISYKTIDTNLNSTNTVLMQIDHVVKNISECYKSAFKDLSINVTQNMQFHSFLQRIIEMTVSGCPITKCDPLIEYEVRFTILNGFLESLSSNTSKFKDNIILLRKEIQHLQAYIYIYIHIVN
In the case of B1, in the assay with Est3-(Flag)3 [1], the “fold higher co-precipitation in G2/M than in G1” value is approximately 20 fold and the “fold increase in G2/M against G1 (quaternary complex)” value was approximately 20 fold.

B2: Est1-(myc)12 (natural protein, S. cerevisiae, UniProt P17214 1-699, looked up)
chain: MDNEEVNEECMRLFFKNARAHLDKHLTSRLTCDENAYITFRCFLDGIHRKSTRFLEELLLKQENMYHNNNYERINDSVIPLVLKLLWLQIHEPTLQWFEHWFHDIMRLSNRRKFRVFRIFQKKMIQFFKITHRYYYDIIEHLCAKYDMNSVISNALFAKLNLMQYTDGLSTHEKIILNTSNPLTFSIVISLQRCVINLGSTHFYKTLLNKPSNKPKSVEGFEKSIRYLNIASLYLPAVGDTYFQRAKIYLITGKFSLYFFELVRGALVRIPSKCALNNLKDFILTPDFPERRRLMKKLAILVSKDLKGEKSFFEGQIVLQFLSIVEHTLVPQSWNASRASNCWLLKEHLQMAALKYHSGNINVILENLAATMGSFDLMFTTRKSKEQKNKLKYADLSERQVFFLDLSFDFIANIIDVVIKPSWQKNMEDFRYLAIIRLLMCWIKSYRSILQYTHRHRKFCTSFALLLNDLINSPLNCSGNIYSHRPKRSYLFREDIIFREFSCINFALTDFNDDYVYDSPDMINNIIGCPTLTKVLSPKEECVLRIRSIIFSGMKFLEKNDTGVIWNASKYKFDLISPNIKIKRQIALSEISSKINVKTQQERVVSSRKVEAKRDEQQRKRAGKIAVTELEKQFANVRRTKKLSPLPEKDGVSSELVKHAASRGRKTITGPLSSDFLSYPDEAIDADEDITVQVPDTPT
B2: the “Est1:Est2 ratio in the anti-Est3 immunoprecipitate” value with Est3-(Flag)3 [1] is approximately 4 Est1 per Est2. In addition, in the assay with Est3-(Flag)3 [2], the “fold reduction in the tlc1-59 strain against the TLC1 strain” value was approximately 20 fold.

For the origin of these results see article PMC4180971 (Genes & Development, 2014).
